According to paper PMC13389190:

Tests used:
ZF-NB23 [1] = target: ZF-NB23
ZF-NB23 [2] = target: ZF-NB23; remark: listed apart in the source
ZF-NB23 [3] = target: ZF-NB23; remark: listed apart in the source

ZF-NB23, sequence (heavy, as listed by the source): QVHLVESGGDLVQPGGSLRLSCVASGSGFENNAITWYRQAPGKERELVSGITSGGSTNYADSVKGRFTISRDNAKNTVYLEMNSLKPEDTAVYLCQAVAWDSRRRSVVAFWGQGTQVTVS

recombinant trimeric SARS-CoV-2 spike protein (from UniProt P0DTC2 14-1273) (natural protein)
MDC (minimal detectable concentration of Spike in the ZF-NB23 / NB15-T7 RNAP sensor) (ZF-NB23 [1]): 13 pM | MDC (minimal detectable concentration of Spike in the fully de novo sensor) (ZF-NB23_D1): 33.3 nM | MDC (minimal detectable concentration of Spike in the fully de novo sensor) (NB15_C1-T7 RNAP): 33.3 nM | MDC (minimal detectable concentration of Spike in the ZF-NB23 / NB15-T7 RNAP sensor, 10% nasal swab sample) (ZF-NB23 [2]): 40 pM | MDC (minimal detectable concentration of Spike, trehalase / glucose read-out) (ZF-NB23 [3]): 330 pM
